Key:
[1] = system: AdHCN2 infected culture; test: Modulation of spontaneous rate by drugs in an AdHCN2 infected culture; assay type: cell-based, rat; conditions: superfusion with drug; control record of same culture 48, 54 and 96 beats/min respectively
[2] = system: expressed HCN2 current in a neonatal ventricular myocyte; test: Effect of threshold concentration of isoproterenol on expressed HCN2 current, two-step voltage protocol; assay type: cell-based, rat
Excerpt: The effect of isoproterenol is to shift the activation curve positive without increasing maximal current. This effect can be visualized by a two-step voltage protocol, with the first step to the midpoint of the activation curve and the second step to the maximum curve. FIG. 23 employs this two-step protocol to illustrate that this threshold concentration of isoproterenol shifts the activation curve of over-expressed HCN2 in a neonatal rat ventricle cell.

[3] = system: native pacemaker current in sinus node; conditions: cited from earlier work
[4] = system: hMSCs loaded with HCN2; conditions: cited from earlier work
[5] = biological target: HCN1 (Mus musculus, UniProt O88704); test: Coexpression of HCN1 with MiRP1 or minK in Xenopus oocytes, two-microelectrode voltage clamp; conditions: maximal conductance
Chain of HCN1 (O88704 whole entry): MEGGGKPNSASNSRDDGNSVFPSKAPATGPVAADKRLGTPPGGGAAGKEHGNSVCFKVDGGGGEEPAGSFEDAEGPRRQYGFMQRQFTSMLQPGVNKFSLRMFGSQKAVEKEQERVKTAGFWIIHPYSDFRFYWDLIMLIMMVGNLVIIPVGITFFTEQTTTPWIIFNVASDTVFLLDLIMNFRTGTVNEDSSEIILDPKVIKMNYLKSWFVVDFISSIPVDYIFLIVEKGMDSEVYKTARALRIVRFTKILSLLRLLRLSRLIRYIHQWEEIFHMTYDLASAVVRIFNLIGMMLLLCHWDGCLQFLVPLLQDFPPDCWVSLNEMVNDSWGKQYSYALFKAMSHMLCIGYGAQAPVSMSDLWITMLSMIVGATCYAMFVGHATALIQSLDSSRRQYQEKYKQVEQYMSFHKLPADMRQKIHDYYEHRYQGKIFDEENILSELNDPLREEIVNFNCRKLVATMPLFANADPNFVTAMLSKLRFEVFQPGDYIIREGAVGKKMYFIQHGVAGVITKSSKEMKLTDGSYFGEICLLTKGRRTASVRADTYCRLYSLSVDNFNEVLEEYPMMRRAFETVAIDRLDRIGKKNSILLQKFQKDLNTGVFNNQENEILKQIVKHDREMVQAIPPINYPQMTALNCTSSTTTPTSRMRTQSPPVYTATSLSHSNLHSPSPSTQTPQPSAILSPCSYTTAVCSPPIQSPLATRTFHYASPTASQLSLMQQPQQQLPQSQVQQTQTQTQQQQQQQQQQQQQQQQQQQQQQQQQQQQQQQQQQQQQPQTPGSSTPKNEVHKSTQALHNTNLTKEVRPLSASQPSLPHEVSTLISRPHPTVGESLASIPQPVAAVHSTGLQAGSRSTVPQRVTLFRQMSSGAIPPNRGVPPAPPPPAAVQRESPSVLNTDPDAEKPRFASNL

[6] = biological target: T1, HCN2 (Mus musculus, UniProt O88703); test: Coexpression of HCN2 with MiRP1 or minK in Xenopus oocytes, two-microelectrode voltage clamp; conditions: maximal conductance
T1 sequence (O88703 1-863): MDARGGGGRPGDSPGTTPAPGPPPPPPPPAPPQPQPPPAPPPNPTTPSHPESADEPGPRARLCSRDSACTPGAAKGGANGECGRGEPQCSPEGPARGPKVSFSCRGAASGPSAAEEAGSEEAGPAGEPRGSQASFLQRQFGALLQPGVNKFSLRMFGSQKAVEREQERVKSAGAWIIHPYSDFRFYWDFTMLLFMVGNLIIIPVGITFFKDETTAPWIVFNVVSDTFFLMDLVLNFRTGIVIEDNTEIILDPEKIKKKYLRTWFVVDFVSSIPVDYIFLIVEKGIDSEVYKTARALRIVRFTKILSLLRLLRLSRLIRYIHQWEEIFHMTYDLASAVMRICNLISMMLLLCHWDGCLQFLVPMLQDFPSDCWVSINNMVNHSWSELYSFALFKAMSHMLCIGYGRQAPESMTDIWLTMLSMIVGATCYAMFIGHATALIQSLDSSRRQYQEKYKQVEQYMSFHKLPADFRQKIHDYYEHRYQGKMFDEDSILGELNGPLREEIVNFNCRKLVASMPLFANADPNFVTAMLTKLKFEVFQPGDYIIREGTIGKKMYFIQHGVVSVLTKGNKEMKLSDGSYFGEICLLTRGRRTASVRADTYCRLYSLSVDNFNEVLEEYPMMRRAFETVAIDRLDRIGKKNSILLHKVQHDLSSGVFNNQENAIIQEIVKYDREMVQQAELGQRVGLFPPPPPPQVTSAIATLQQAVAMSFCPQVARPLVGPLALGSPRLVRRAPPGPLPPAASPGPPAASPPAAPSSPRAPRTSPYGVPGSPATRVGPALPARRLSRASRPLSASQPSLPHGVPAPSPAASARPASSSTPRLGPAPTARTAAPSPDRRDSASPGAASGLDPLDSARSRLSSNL

[7] = biological target: mouse Cx45 on transfected HeLa cells (mouse) (UniProt P28229)
[8] = biological target: rat Cx40 on transfected HeLa cells (rat) (UniProt P28234)
[9] = biological target: rat Cx43 on transfected HeLa cells (rat) (UniProt P08050)

Question: Which results are given for `CC(C)NCC(O)c1ccc(O)c(O)c1` (stereo not drawn) [isoproterenol]?
Answer: spontaneous rate during drug exposure [1]: 63 beats/min; positive shift of activation curve [2]: approximately 5 mV; threshold concentration on native pacemaker current [3]: approximately 1 nM; effect on expressed current [4]: shift in activation such that increased current flowed at more positive potentials

Question: For “minK: rat minK, the minimal K channel protein”, which “enhancement of HCN1 conductance on coexpression” value [5] is on record?
Answer: Its value is “does not enhance”.

Question: What about the “enhancement of HCN2 expression on coexpression” value [6] of the same compound?
Answer: Its value is “does not enhance”.

Question: For “human mesenchymal stem cells (cells without a defined receptor)”, which junctional conductance in cell pairs (double voltage clamp) [7] is on record?
Answer: The junctional conductance in cell pairs (double voltage clamp) was 11 nS.

Question: What about the junctional conductance in cell pairs (double voltage clamp) [8] of the same compound?
Answer: The junctional conductance in cell pairs (double voltage clamp) was 4.6 nS.

Question: What about the junctional conductance in cell pairs (double voltage clamp) [9] of the same compound?
Answer: The junctional conductance in cell pairs (double voltage clamp) was 7.9 nS.

From US20070099268A1, “Chimeric HCN channels” (priority 2005, published 2007)
